From patent publication US20100150860A1

What was measured:
[1] = target: human fibrin (Sigma, F5386) (human) (UniProt P02671); experiment: SEC-HPLC of the mixture after 1 h at 37 C; peak of the bound pair
[2] = target: human fibrin (Sigma, F5386) (human) (UniProt P02671); experiment: SEC-HPLC of the mixture after 1 h at 37 C; second peak (thrombin alone runs at 18.778)

Sequence of human fibrin (Sigma, F5386) (human) (P02671 36-629, chain 1 of 3): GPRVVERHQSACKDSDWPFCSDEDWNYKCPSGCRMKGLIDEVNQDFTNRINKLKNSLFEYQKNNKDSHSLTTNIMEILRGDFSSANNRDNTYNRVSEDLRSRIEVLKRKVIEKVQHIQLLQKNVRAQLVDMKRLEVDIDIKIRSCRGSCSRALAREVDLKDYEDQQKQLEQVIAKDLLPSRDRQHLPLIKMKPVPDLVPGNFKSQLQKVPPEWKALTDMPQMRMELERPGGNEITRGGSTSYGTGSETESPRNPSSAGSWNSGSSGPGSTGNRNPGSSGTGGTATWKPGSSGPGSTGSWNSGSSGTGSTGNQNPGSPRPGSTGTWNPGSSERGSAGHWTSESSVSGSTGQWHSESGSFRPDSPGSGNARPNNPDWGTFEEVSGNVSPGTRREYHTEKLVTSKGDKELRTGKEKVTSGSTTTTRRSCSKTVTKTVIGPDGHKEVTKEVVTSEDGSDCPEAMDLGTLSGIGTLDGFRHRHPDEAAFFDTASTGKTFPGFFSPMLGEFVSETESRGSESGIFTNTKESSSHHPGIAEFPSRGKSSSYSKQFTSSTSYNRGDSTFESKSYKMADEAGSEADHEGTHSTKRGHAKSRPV
Sequence of human fibrin (Sigma, F5386) (human) (P02675 45-491, chain 2 of 3, further chain): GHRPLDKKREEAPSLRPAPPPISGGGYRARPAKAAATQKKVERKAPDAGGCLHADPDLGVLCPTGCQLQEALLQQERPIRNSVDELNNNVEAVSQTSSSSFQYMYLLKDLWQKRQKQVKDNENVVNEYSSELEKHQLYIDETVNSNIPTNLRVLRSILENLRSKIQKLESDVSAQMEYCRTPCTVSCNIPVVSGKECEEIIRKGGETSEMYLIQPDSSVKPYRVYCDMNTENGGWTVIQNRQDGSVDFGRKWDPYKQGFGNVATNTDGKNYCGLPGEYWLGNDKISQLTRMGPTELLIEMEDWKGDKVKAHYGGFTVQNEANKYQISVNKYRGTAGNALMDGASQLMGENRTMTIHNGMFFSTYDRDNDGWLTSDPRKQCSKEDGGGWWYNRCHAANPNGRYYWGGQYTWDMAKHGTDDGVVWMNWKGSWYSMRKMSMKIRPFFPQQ
Sequence of human fibrin (Sigma, F5386) (human) (P02679 other isoform, or with tags, fused parts or gaps, chain 3 of 3, further chain): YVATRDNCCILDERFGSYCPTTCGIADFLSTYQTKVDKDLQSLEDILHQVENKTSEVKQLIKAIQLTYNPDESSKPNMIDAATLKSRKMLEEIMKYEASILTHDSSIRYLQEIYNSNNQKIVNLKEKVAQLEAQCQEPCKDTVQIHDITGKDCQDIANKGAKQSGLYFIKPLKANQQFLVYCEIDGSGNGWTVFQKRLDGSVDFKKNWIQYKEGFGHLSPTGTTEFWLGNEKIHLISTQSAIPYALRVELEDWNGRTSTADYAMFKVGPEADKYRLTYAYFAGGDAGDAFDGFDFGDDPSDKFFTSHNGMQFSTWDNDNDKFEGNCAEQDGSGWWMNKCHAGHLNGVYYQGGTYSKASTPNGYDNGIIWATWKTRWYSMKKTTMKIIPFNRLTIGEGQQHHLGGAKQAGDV

human thrombin (National Institute for the Control of Pharmaceutical and Biological Products, Lot No. 20021105) (from UniProt P00734 328-622) (enzyme)
retention time (min), peak 1 [1]: 12.6 min
retention time (min), peak 2 [2]: 18.6 min
